Experimental data: patent publication US20250250328A1

Experiments:
Assay in all cases: cell-based or functional assay
[1] = target: HIV-1 envelope CC1/85 (HIV-1)
[2] = target: HIV-1 envelope NL4-3 (HIV-1)
[3] = target: HIV-1 envelope ZM106.9 (HIV-1)
[4] = target: HIV-1 envelope CAP45.2.00.G3 (HIV-1)
[5] = target: HIV-1 envelope 42368 (HIV-1)
[6] = target: HIV-1 envelope X2088.C9 (HIV-1)
[7] = target: HIV-1 envelope T278.50 (HIV-1)
[8] = target: HIV-1 envelope 398F1 (HIV-1)
[9] = target: HIV-1 envelope TRO11 (HIV-1)
[10] = target: HIV-1 envelope BJOX2000 (HIV-1)
[11] = target: HIV-1 envelope CE0217 (HIV-1)
[12] = target: HIV-1 envelope CNE55 (HIV-1)
[13] = target: HIV-1 envelope JR-CSF (HIV-1)
[14] = target: HIV-1 envelope X2278 (HIV-1)
[15] = target: HIV-1 envelope 246F3 (HIV-1)
[16] = target: HIV-1 envelope CE1176 (HIV-1)
[17] = target: HIV-1 envelope X1632_S2_B10 (HIV-1)
[18] = target: HIV-1 envelope JRFL (HIV-1)
[19] = target: HIV-1 envelope CH119 (HIV-1)
[20] = target: HIV-1 envelope 25710 (HIV-1)
[21] = target: HIV-1 envelope CNE8 (HIV-1)
[22] = target: HIV-1 envelope 3468_V1_C12 (HIV-1)
[23] = target: HIV-1 envelope 3637_V5_C3 (HIV-1)
[24] = target: HIV-1 envelope Q461_E2 (HIV-1)
[25] = target: HIV-1 envelope 3326_V4_C3 (HIV-1)
[26] = target: HIV-1 envelope of laboratory strain NL4-3 (HIV-1)
[27] = target: HIV-2 envelope HIV-2-HCC-01 (HIV-2)
[28] = target: a different panel of HIV-1 envelopes from bNAb1-resistant strains
[29] = target: HIV-2 envelope HIV-2-ATM88 (HIV-2)

B1: bNAb3 (antibody, V domains shown)
VH: QVQLRESGPGLVKPSETLSLSCTVSNDSRPSDHSWTWVRQSPGKALEWIGDIHYNGATTYNPSLRSRVRIELDQSIPRFSLKMTSMTAADTGMYYCARNAIRIYGVVALGEWFHYGMDVWGQGTAVTVSS
VL: SSELTQPPSVSVSPGQTARITCSGAPLTSRFTYWYRQKPGQAPVLIISRSSQRSSGWSGRFSASWSGTTVTLTIRGVQADDEADYYCQSSDTSDSYKMFGGGTKLTVLG
IC50 (nM), PSV assay (ACTOne cells) [1]: 38.3 nM
IC50 (nM), PSV assay (ACTOne cells) [2]: 0.15 nM
IC50 (nM), PSV assay (ACTOne cells) [3]: 0.03 nM
IC50 (nM), PSV assay (ACTOne cells) [4]: > 500 nM
IC50 (nM), PSV assay (ACTOne cells) [5]: > 500 nM
IC50 (nM), PSV assay (ACTOne cells) [6]: 0.03 nM
IC50 (nM), PSV assay (ACTOne cells) [7]: 0.01 nM

B2: bNAb5 (antibody, V domains shown)
VH: QLQMQESGPGLVKPSETLSLSCTVSGDSIRGGEWGDKDYHWGWVRHSAGKGLEWIGSIHWRGTTHYKESLRRRVSMSIDTSRNWFSLRLASVTAADTAVYFCARHRHHDVFMLVPIAGWFDVWGPGVQVTVSS
VL: EIVMTQSPDTLSVSPGETVTLSCRASQNINKNLAWYQYKPGQSPRLVIFETYSKIAAFPARFVASGSGTEFTLTINNMQSEDVAVYYCQQYEEWPRTFGQGTKVDIKR
IC50 (nM), PSV assay [8]: 1.83 nM
IC50 (nM), PSV assay [9]: 0.39 nM
IC50 (nM), PSV assay [10]: 127 nM
IC50 (nM), PSV assay [11]: 410 nM
IC50 (nM), PSV assay [1]: > 500 nM
IC50 (nM), PSV assay [12]: 3300 nM
IC50 (nM), PSV assay [13]: 0.64 nM
IC50 (nM), PSV assay [2]: 2.62 nM
IC50 (nM), PSV assay [3]: 2.04 nM
IC50 (nM), PSV assay [14]: 9.53 nM
IC50 (nM), PSV assay [15]: 40.9 nM
IC50 (nM), PSV assay [16]: 57.1 nM
IC50 (nM), PSV assay [17]: > 500 nM
IC50 (nM), PSV assay [18]: 58.2 nM
IC50 (nM), PSV assay [4]: > 500 nM
IC50 (nM), PSV assay [5]: > 500 nM
IC50 (nM), PSV assay [19]: 63.5 nM
IC50 (nM), PSV assay [6]: 0.17 nM
IC50 (nM), PSV assay [20]: 8.1 nM
IC50 (nM), PSV assay [7]: 96.1 nM
IC50 (nM), PSV assay [21]: 51.4 nM

B3: bNAb23 (antibody, V domains shown)
VH: QVQLLESGPGLVRPSETLTLTCSVFNSRVSGYYYSWIRQPPGRGLEWIASTHFSLRPSRNPSLLSRVTTSIDTERYQVFLNMRSVTAADTAVYFCARGDASGWRADYFPHWGQGTLVVVSS
VL: QSVLTQPPSASGSPGQSVTISCTGTSSDIGASDYVSWYQQYPGEAPKVIIYDVTKRPSGVPDRFSGSKSGTTASLTVSGLQAEDEADYYCSSDAGRHTLLFGGGTKVTVLG
IC50, PSV assay [22]: > 500 nM
IC50, PSV assay [23]: > 500 nM
IC50, PSV assay [3]: 17.4 nM
IC50, PSV assay [24]: > 500 nM
IC50, PSV assay [5]: > 500 nM
IC50, PSV assay [25]: 15.3 nM
IC50, PSV assay [6]: > 500 nM

B4: bNAb1 (antibody, V domains shown)
VH: QPQLQESGPTLVEASETLSLTCAVSGDSTAACNSFWGWVRQPPGKGLEWVGSLSHCASYWNRGWTYHNPSLKSRLTLALDTPKNLVFLKLNSVTAADTATYYCARFGGEVLRYTDWPKPAWVDLWGRGTLVTVSS
VL: QSALTQPPSASGSPGQSITISCTGTSNNFVSWYQQHAGKAPKLVIYDVNKRPSGVPDRFSGSKSGNTASLTVSGLQTDDEAVYYCGSLVGNWDVIFGGGTKLTVLG
IC50 (nM), PSV assay (ACTOne cells) [1]: 0.03 nM
EC50 (replicating virus assay) [26]: > 500 nM
IC50, PSV assay [27]: > 500 nM
geometric mean IC50, PSV assay (ACTOne), FIG. 4B [28]: > 10 nM
IC50, PSV assay [29]: > 500 nM
IC50 (nM), PSV assay (ACTOne cells) [2]: 131 nM
IC50 (nM), PSV assay (ACTOne cells) [3]: 0.07 nM
IC50 (nM), PSV assay (ACTOne cells) [4]: > 500 nM
IC50 (nM), PSV assay (ACTOne cells) [5]: > 500 nM
IC50 (nM), PSV assay (ACTOne cells) [6]: 402 nM
IC50 (nM), PSV assay (ACTOne cells) [7]: 0.17 nM

B5: bNAb19 (antibody, V domains shown)
VH: EVQLVESGGGLVKAGGSLILSCGVSNFRISAHTMNWVRRVPGGGLEWVASISTSSTYRDYADAVKGRFTVSRDDLEDFVYLQMHKMRVEDTAIYYCARKGSDRLSDNDPFDAWGPGTVVTVSP
VL: DVVMTQSPSTLSASVGDTITITCRASQSIETWLAWYQQKPGKAPKLLIYKASTLKTGVPSRFSGSGSGTEFTLTISGLQFDDFATYHCQHYAGYSATFGQGTRVEIKR
IC50, PSV assay [22]: > 300 nM
IC50, PSV assay [23]: > 300 nM
IC50, PSV assay [3]: > 300 nM
IC50, PSV assay [24]: > 300 nM
IC50, PSV assay [5]: > 300 nM
IC50, PSV assay [25]: > 300 nM
IC50, PSV assay [6]: > 300 nM

B6: bNAb14 (antibody, V domains shown)
VH: QLQLQESGPGLVKPSETLSLTCTVSGGSMRGTDWGENDFHYGWIRQSSAKGLEWIGSIHWRGRTTHYKTSFRSRATLSIDTSNNRFSLTFSFVTAADTAVYYCARHKYHDIFRVVPVAGWFDPWGQGLLVTVSS
VL: EIVMTQSPPTLSVSPGETATLSCRASQNVKNNLAWYQLKPGQAPRLLIFDASSRAGGIPDRFSGSGYGTDFTLTVNSVQSEDFGDYFCQQYEEWPRTFGQGTKVDIKR
IC50, PSV assay [22]: > 500 nM
IC50, PSV assay [23]: > 500 nM
IC50, PSV assay [3]: 1.26 nM
IC50, PSV assay [24]: > 500 nM
IC50, PSV assay [5]: > 500 nM
IC50, PSV assay [25]: > 500 nM
IC50, PSV assay [6]: 2.79 nM

B7: bNAb16 (antibody, V domains shown)
VH: EVQLVESGGGLVKPGGSLRLTCVASGFTFSDVWLNWVRQAPGKGLEWVGRIKSRTDGGTTDYAASVKGRFTISRDDSKNTLYLQMNSLKTEDTAVYSCTTDGFIMIRGVSEDYYYYYMDVWGKGTTVTVSS
VL: QSVLTQPPSVSAAPGQKVTISCSGSSSNIGNNYVLWYQQFPGTAPKLLIYGNNKRPSGIPDRFSGSKSGTSATLGITGLQTGDEADYFCATWDSGLSADWVFGGGTKLTVLG
IC50, PSV assay [22]: > 500 nM
IC50, PSV assay [23]: > 500 nM
IC50, PSV assay [3]: > 500 nM
IC50, PSV assay [24]: > 500 nM
IC50, PSV assay [5]: > 500 nM
IC50, PSV assay [25]: > 500 nM
IC50, PSV assay [6]: 289 nM

B8: bNAb15 (antibody, V domains shown)
VH: EVHLEESGPGLVRPSETLSLTCTASGGSIRGGEWGDSDYHWGWVRHSPEKGLEWIGSIHWRGTTHYNAPFRGRGRLSIDLSRNQFSLRLTSVTAEDTAVYYCVKHKYHDIVMVVPIAGWFDPWGQGLQVTVSS
VL: EIMMTQSPAILSVSPGDRATLSCRASQSVKNNLAWYQKRPGQAPRLLIFDTSSRASGIPARFSGGGSGTEFTLTVNSMQSEDFATYYCQQYEEWPRTFGQGTKVEIKR
IC50, PSV assay [22]: > 500 nM
IC50, PSV assay [23]: 5 nM
IC50, PSV assay [3]: 1.34 nM
IC50, PSV assay [24]: > 500 nM
IC50, PSV assay [5]: > 500 nM
IC50, PSV assay [25]: > 500 nM
IC50, PSV assay [6]: 2.58 nM

B9: bNAb18 (antibody, V domains shown)
VH: QVQLVQSGAEVRKPGSSVTISCKPVGGTFTNFAIHWVRQAPGQGLEWVGGRVPVVGIYKYGKKFHDRLRLYEDDPMKTVFLELRSLTSDDTGVYYCTRWRGCGMCPYDTSSYYNDASDVWGPGTKVIVSA
VL: EIVLTQSPVTLSLSSGETGTLSCRASQNISSSWIAWYQQRRGQVPRLLISAASARAAGIPDRFTGRGSGTDFTLTITRLEPEDFGVYSCQYYGGSFFTFGPGTQVDVKR
IC50, PSV assay [22]: > 500 nM
IC50, PSV assay [23]: > 500 nM
IC50, PSV assay [3]: 0.11 nM
IC50, PSV assay [24]: > 500 nM
IC50, PSV assay [5]: > 500 nM
IC50, PSV assay [25]: > 500 nM
IC50, PSV assay [6]: 0.2 nM
